Experimental data as given in patent publication US20230391860A1 (CANON MEDICAL SYSTEMS, published 2023).

Assays:
Assay in all cases: ELISA on immobilised peptide, antibody 1 ug/mL
mCRP (79) = molecular target: T1, mCRP (79) (human)
T1 peptide: NEILIFWSKDC
Text: (§1) The following materials were used as materials for epitope analysis. [0156] (a) Plate: Immunoplate for ELISA (96 well) manufactured by Nunc [0157] […] (c) Solid-phase buffer: 0.1 M carbonate buffer pH 9.5 (IBL) [0159] (d) Antiserum dilution buffer: 1% BSA, 0.05% Tween-20 (Kanto Chemical Co., Inc.) in PBS [0160] (e) Labeled antibody dilution buffer: 1% BSA, 0.05% Tween-20 in PBS [0161] (f) Washing buffer: 0.05% Tween-20 in 0.1 M PB [0162] (g) Substrate buffer: K₂HPO₄-citrate buffer (pH 5.1) (IBL) [0163] (h) Reaction stop solution: 1 mol/L-H₂SO₄ (Wako Pure Chemical Industries, Ltd.)
(§2) Epitope analysis was performed by the following procedure. [0166] (a) Peptides were immobilized on a plate by standing at 50 ng/well (50 μL/well) for 16 hours at 4° C. […] (b) Solid phase peptides were washed twice with Dulbecco's PBS (D-PBS) (200 μL/well). [0168] (c) Blocking was performed by adding 200 μL of D-PBS containing 0.1% BSA and 0.05% NaN₃ to each well and leaving it at 4° C. overnight. [0169] (d) Each well was washed twice with the washing buffer. [0170] (e) The antibody was diluted to 1 μg/mL with the dilution buffer and the diluted solution was added to each well (50 μL/well) and left at 37° C. for 30 minutes. [0171] (f) Each well was washed four or more times with the washing buffer. [0172] (g) Anti-mouse IgG (γ-specific)-HRP, a labeled antibody, was added to each well (50 μL/well) and left at 37° C. for 30 minutes. [0173] (h) Each well was washed four or more times with the washing buffer. [0174] (i) A chromogenic reaction was started by adding a substrate solution (400 μg/mL) to each well (100 μL/well), and the reaction was allowed to proceed for 15 minutes at room temperature in the dark. [0175] (j) After 15 minutes, the reaction was stopped by addition of 1 mol/L sulfuric acid (100 μL/well), and absorbance (490 nm) was measured.

mCRP (119) = molecular target: T2, mCRP (119) (human)
T2 peptide: ESASGIVEFWC
Text: as §1, §2

mCRP (199) = molecular target: T3, mCRP (199) (human)
T3 peptide: SPNVLNWRALC
Text: as §1, §2

mCRP (89) = molecular target: T4, mCRP (89) (human)
T4 peptide: IGYSFTVGGSC
Text: as §1, §2

mCRP (159) = molecular target: T5, mCRP (159) (human)
T5 peptide: SFGGNFEGSQC
Text: as §1, §2

mCRP (59) = molecular target: T6, mCRP (59) (human)
T6 peptide: TELSSTRGYSC
Text: as §1, §2

mCRP (209) = molecular target: T7, mCRP (209) (human)
T7 peptide: KYEVQGEVFTKPQLWPC
Text: as §1, §2

mCRP (49) = molecular target: T8, mCRP (49) (human)
T8 peptide: KAFTVCLHFYC
Text: as §1, §2

mCRP (149) = molecular target: T9, mCRP (149) (human)
T9 peptide: ASIILGQEQDC
Text: as §1, §2

mCRP (139) = molecular target: T10, mCRP (139) (human)
T10 peptide: LKKGYTVGAEC
Text: as §1, §2

mCRP (99) = molecular target: T11, mCRP (99) (human)
T11 peptide: EILFEVPEVTC
Text: as §1, §2

mCRP (69) = molecular target: T12, mCRP (69) (human)
T12 peptide: IFSYATKRQDC
Text: as §1, §2

mCRP (169) = molecular target: T13, mCRP (169) (human)
T13 peptide: SLVGDIGNVNC
Text: as §1, §2

mCRP (129) = molecular target: T14, mCRP (129) (human)
T14 peptide: VDGKPRVRKSC
Text: as §1, §2

mCRP (29) = molecular target: T15, mCRP (29) (human)
T15 peptide: FPKESDTSYVC
Text: as §1, §2

mCRP (19) = molecular target: T16, mCRP (19) (human)
T16 peptide: QTDMSRKAFVC
Text: as §1, §2

mCRP (189) = molecular target: T17, mCRP (189) (human)
T17 peptide: INTIYLGGPFC
Text: as §1, §2

mCRP (179) = molecular target: T18, mCRP (179) (human)
T18 peptide: MWDFVLSPDEC
Text: as §1, §2

mCRP (39) = molecular target: T19, mCRP (39) (human)
T19 peptide: SLKAPLTKPLC
Text: as §1, §2

mCRP (109) = molecular target: T20, mCRP (109) (human)
T20 peptide: VAPVHICTSWC
Text: as §1, §2

mCRP (31-60) = molecular target: T21, mCRP (31-60) (human)
T21 peptide: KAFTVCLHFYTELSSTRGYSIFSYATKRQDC

mCRP (61-90) = molecular target: T22, mCRP (61-90) (human)
T22 peptide: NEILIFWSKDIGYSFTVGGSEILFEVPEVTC

mCRP (151-180) = molecular target: T23, mCRP (151-180) (human)
T23 peptide: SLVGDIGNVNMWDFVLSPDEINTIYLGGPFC

mCRP (121-150) = molecular target: T24, mCRP (121-150) (human)
T24 peptide: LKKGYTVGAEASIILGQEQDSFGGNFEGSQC

mCRP (181-206) = molecular target: T25, mCRP (181-206) (human)
T25 peptide: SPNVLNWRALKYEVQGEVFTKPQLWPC

B1: human denatured CRP-specific antibody produced from hybridoma mCRP-3C (antibody, mouse IgG2b, V domains shown)
VH: QVQLQQSGAELVRPGASVKLSCKALDYTFTDYEMHWVKQTPVHGLEWIGAIHPGRGGTAYNQKFKGKATLTADKSSSTAYMELSSLTSEDSGVYYCTSYHGGYWGQGTTLTVSS
VL: DVVMTQTPLSLPVSLGDQASISCRSSQSLVHSNENTYLLWYLQKPGQSPKLLIYKVSNRFSGVPDRFSGSGSGTDFTLKISRVEAEDLGVYFCSQTTHVPWTFGGGTKLEIKR
notes: Mouse IgG2b, kappa; also called 3C antibody
absorbance (490 nm) (mCRP (79)): 0
absorbance (490 nm) (mCRP (119)): 0.005
absorbance (490 nm) (mCRP (199)): 0.006
absorbance (490 nm) (mCRP (89)): 0
absorbance (490 nm) (mCRP (159)): 0.002
absorbance (490 nm) (mCRP (59)): 0.001
absorbance (490 nm) (mCRP (209)): 0
absorbance (490 nm) (mCRP (49)): 0
absorbance (490 nm) (mCRP (149)): 0.001
absorbance (490 nm) (mCRP (139)): 0.002
absorbance (490 nm) (mCRP (99)): 1.58
absorbance (490 nm) (mCRP (69)): 0.002
absorbance (490 nm) (mCRP (169)): 0.001
absorbance (490 nm) (mCRP (129)): 0.002
absorbance (490 nm) (mCRP (29)): -0.001
absorbance (490 nm) (mCRP (19)): 0.004
absorbance (490 nm) (mCRP (189)): 0.007
absorbance (490 nm) (mCRP (179)): 0.003
absorbance (490 nm) (mCRP (39)): 0.001
absorbance (490 nm) (mCRP (109)): -0.001
absorbance (490 nm) (mCRP (31-60)): 0.03
absorbance (490 nm) (mCRP (61-90)): 1.98
absorbance (490 nm) (mCRP (151-180)): 0.108
absorbance (490 nm) (mCRP (121-150)): 0.017
absorbance (490 nm) (mCRP (181-206)): 0.006
